# Measured values published in publication PMC9278865.
# Molecular target: wt ACE2_(615)-Fc (M27) (human) (UniProt Q9BYF1)
# Assay: SPR
# wt ACE2_(615)-Fc (M27) (human), sequence (Q9BYF1 18-615): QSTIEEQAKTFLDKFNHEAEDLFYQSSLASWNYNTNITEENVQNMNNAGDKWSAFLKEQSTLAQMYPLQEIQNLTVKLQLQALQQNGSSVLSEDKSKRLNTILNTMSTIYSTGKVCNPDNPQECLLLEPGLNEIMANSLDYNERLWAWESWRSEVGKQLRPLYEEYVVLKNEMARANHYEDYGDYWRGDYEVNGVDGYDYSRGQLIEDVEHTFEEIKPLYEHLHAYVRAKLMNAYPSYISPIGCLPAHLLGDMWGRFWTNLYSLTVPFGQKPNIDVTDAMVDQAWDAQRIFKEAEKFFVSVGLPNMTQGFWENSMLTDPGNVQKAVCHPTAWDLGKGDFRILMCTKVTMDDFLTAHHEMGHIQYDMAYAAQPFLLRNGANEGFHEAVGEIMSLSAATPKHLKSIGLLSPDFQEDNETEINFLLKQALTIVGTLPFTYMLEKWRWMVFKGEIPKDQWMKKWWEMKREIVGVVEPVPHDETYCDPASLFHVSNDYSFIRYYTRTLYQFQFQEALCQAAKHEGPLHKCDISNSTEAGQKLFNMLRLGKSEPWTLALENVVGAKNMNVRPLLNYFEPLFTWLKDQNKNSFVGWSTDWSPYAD
substance,measurement,value
SARS-CoV RBD (residues 306 to 577) (domain or fragment),fold lower affinity than RBDwt on M27,5 fold
